Source: patent publication US8026218 (UNIVERSITY OF ARIZONA, dated 2011)
Where two headings read alike, the source gives them in different places. Bridge positions count the residues as written; N and C are the ends. Square brackets hold non-standard residues; d marks the D form. Ends that are not written are not given here. * marks the point of attachment. NH(3,5-(CF3)2-benzyl) = FC(F)(F)c1cc(CN*)cc(C(F)(F)F)c1; OBzl(3,5-(CF3)2) = FC(F)(F)c1cc(CO*)cc(C(F)(F)F)c1; Nle = CCCC[C@H](N)C(=O)O

Experiments:
[1] = target: T1, µ opioid receptor of the guinea pig isolated ileum (guinea pig, UniProt P97266 1-98); assay: cell-based or functional assay
T1 sequence (P97266 whole entry): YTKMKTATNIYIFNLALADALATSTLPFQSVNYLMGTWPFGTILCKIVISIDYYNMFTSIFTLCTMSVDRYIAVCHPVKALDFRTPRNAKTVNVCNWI

[2] = target: guinea pig NK1 receptor (guinea pig, UniProt P30547 1-407); assay: cell-based or functional assay
Target sequence in this assay (P30547 whole entry): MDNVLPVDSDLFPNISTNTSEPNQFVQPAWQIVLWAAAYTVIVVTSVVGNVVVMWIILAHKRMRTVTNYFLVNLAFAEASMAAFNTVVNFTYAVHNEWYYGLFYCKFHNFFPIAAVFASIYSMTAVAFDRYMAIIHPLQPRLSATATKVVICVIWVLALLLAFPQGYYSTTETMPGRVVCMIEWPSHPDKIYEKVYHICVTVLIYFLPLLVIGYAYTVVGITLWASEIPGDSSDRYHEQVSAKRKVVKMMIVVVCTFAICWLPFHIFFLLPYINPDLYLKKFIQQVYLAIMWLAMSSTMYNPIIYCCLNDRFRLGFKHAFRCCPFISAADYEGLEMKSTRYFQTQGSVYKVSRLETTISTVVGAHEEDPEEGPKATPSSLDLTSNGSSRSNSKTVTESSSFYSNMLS

[3] = target: µ opioid receptor of the guinea pig isolated ileum (guinea pig); assay: cell-based or functional assay
[4] = target: T2, human δ opioid receptor (human, UniProt P41143 1-372); assay: competition vs [3H]DPDPE, membranes of hDOR-transfected HN9.10 cells
T2 construct: whole, on cells; Assayed as membrane preparations of transfected cells; also called hDOR; DOR
T2 sequence (P41143 whole entry, stated change not applied): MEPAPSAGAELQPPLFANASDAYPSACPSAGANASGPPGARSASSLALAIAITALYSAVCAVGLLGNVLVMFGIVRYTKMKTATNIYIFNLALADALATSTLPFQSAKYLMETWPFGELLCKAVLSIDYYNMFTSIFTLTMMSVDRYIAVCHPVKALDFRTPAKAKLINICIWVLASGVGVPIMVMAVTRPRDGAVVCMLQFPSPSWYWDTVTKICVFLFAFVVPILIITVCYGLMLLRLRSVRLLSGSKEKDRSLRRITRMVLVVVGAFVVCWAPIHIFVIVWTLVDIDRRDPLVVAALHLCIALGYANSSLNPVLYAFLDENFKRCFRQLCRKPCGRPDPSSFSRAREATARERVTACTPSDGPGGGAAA

[5] = target: T3, rat NK1 receptor (rat, UniProt P14600 1-407); assay: competition vs [3H]substance P, membranes of rNK1-transfected CHO cells
T3 construct: whole, on cells; Assayed as membrane preparations of transfected CHO cells; also called rNK1; rNK-1
T3 sequence (P14600 whole entry): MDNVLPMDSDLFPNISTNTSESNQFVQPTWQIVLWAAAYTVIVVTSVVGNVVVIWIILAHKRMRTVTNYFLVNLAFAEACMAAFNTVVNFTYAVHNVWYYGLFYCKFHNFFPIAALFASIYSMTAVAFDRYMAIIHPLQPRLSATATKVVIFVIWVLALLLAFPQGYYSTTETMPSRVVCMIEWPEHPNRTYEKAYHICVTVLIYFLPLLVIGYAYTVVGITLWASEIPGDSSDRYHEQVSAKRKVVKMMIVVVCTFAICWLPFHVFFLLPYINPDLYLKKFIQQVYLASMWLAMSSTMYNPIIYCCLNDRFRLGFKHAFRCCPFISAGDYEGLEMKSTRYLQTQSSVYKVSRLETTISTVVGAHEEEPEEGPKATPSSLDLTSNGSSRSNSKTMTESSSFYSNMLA

[6] = target: T2, human δ opioid receptor; assay: cell-based or functional assay
[7] = target: T4, rat µ opioid receptor (rat, UniProt P33535 1-398); assay: cell-based or functional assay
T4 sequence (P33535 whole entry): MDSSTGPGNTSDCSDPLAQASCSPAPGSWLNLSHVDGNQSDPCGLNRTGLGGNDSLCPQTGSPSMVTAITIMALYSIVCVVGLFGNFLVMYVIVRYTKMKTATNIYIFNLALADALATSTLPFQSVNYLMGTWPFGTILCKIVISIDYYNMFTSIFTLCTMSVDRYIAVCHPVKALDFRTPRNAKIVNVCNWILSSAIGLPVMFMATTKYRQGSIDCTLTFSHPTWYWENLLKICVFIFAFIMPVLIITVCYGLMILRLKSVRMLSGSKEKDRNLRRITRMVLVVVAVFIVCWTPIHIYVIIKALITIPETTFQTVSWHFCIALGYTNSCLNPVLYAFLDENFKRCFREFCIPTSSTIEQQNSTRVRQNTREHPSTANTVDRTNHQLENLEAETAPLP

[8] = target: T2, human δ opioid receptor; assay: cell-based or functional assay; remark: listed apart in the source
[9] = target: T4, rat µ opioid receptor; assay: cell-based or functional assay; remark: listed apart in the source
[10] = target: T3, rat NK1 receptor; assay: competition vs [3H]substance P, membranes of rNK1-transfected CHO cells; remark: listed apart in the source
[11] = target: T2, human δ opioid receptor; assay: competition vs [3H]DPDPE, membranes of hDOR-transfected HN9.10 cells; remark: listed apart in the source
[12] = target: T4, rat µ opioid receptor; assay: competition vs [3H]DAMGO, membranes of rMOR-transfected HN9.10 cells
[13] = target: T2, human δ opioid receptor; assay: ratio of Ki at rMOR to Ki at hDOR
[14] = target: T5, rat NK1 receptor (rat, UniProt P14600 1-407); assay: competition vs [3H]Substance P, rNK1 CHO cell membranes
T5 construct: whole, on cells; membrane preparations of the transfected cells were used; also called rNK1; rNK-1
T5 sequence (P14600 whole entry): as the sequence (P14600 whole entry) above

[15] = target: T6, human δ opioid receptor (human, UniProt P41143 1-372); assay: cell-based or functional assay; remark: listed apart in the source
T6 sequence (P41143 whole entry, stated change not applied): as the sequence (P41143 whole entry, stated change not applied) above

[16] = target: T7, rat µ opioid receptor (rat, UniProt P33535 1-398); assay: cell-based or functional assay; remark: listed apart in the source
T7 sequence (P33535 whole entry): as the sequence (P33535 whole entry) above

[17] = target: T7, rat µ opioid receptor; assay: competition vs [3H]DAMGO, rMOR cell membranes
[18] = target: T6, human δ opioid receptor; assay: competition vs [3H]DPDPE, hDOR cell membranes
[19] = target: guinea pig NK1 receptor (guinea pig, UniProt P30547 1-407); assay: cell-based or functional assay; remark: listed apart in the source
Target sequence in this assay (P30547 whole entry): as the sequence (P30547 whole entry) above

[20] = target: µ opioid receptor of the guinea pig isolated ileum (guinea pig, UniProt P97266 1-98); assay: cell-based or functional assay; remark: listed apart in the source
Target sequence in this assay (P97266 whole entry): as the sequence (P97266 whole entry) above

[21] = target: T8, human NK1 receptor (human, UniProt P25103 1-407); assay: competition vs [3H]Substance P, hNK1 CHO cell membranes
T8 construct: whole, on cells; membrane preparations of the transfected cells were used; also called hNK1; human neurokinin-1 receptor
T8 sequence (P25103 whole entry): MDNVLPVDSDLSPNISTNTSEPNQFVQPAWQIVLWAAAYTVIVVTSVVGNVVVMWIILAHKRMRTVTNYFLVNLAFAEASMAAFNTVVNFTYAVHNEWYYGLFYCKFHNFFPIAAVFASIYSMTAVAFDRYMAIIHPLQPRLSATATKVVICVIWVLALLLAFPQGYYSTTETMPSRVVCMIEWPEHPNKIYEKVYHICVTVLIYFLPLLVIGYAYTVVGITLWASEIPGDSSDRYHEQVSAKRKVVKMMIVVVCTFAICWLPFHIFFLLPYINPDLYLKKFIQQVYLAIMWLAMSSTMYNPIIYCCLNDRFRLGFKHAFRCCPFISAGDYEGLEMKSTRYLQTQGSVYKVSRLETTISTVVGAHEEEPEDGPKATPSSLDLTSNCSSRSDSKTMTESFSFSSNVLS

[22] = target: T6, human δ opioid receptor; assay: competition vs [3H]DPDPE, hDOR cell membranes; remark: listed apart in the source
[23] = target: T8, human NK1 receptor; assay: competition vs [3H]Substance P, hNK1 CHO cell membranes; remark: listed apart in the source
[24] = target: T1, µ opioid receptor of the guinea pig …; assay: cell-based or functional assay; remark: listed apart in the source

B1: Tyr-DAla-Gly-Phe-Pro-Trp-O-Bzl(CF3)2 (NP39) (peptide)
peptide: Y[dA]GFPW-{O‑Bzl(CF3)2}
GPI/LMMP µ-agonist IC50 [1]: 259 nM

B2: H-Tyr-D-Ala-Gly-Phe-Met-Pro-Leu-Trp-O-3,5-Bzl(CF3)2 (peptide)
peptide: H-Y[dA]GFMPLW-{OBzl(3,5-(CF3)2)}
modifications: also: TFA salt
notes: TFA salt; also called TY005; TY5
Substance P GPI antagonist Ke [2]: 24.7 nM | GPI (µ) opioid agonist IC50 [3]: 359 nM | Ki [4]: 2.8 nM | LogIC50 [4]: -8.22 | IC50 [5]: 6.4 nM | LogIC50 [5]: -8.22 | [35S]GTPγS binding EC50 [6]: 2.9 nM | [35S]GTPγS binding Emax [6]: 48% | [35S]GTPγS binding LogEC50 [6]: -8.5 | [35S]GTPγS binding Emax [7]: 46% | [35S]GTP-γ-S binding EC50 [8]: 2.9 nM | [35S]GTP-γ-S binding Emax [8]: 51% | [35S]GTP-γ-S binding LogEC50 [8]: -8.54 | [35S]GTP-γ-S binding Emax [9]: 45% | Ki [10]: 0.29 nM | LogIC50 [10]: -9 | Ki [11]: 2.8 nM

B3: H-Tyr-D-Ala-Gly-Phe-D-Phe-Pro-Leu-Trp-O-3,5-Bzl(CF3)2 (peptide)
peptide: H-Y[dA]GF[dF]PLW-{OBzl(3,5-(CF3)2)}
modifications: also: TFA salt
notes: TFA salt; also called TY007
Substance P GPI agonist (A50), contraction relative to KCl [2]: 0 % at 1 µM | Substance P GPI antagonist Ke [2]: 69.6 nM | GPI (µ) opioid agonist, % at 1 µM [3]: 9 % at 1 µM | Ki [4]: 93 nM | LogIC50 [4]: -6.7 | IC50 [5]: 66.7 nM | LogIC50 [5]: -7.22 | [35S]GTP-γ-S binding EC50 [8]: 16.8 nM | [35S]GTP-γ-S binding Emax [8]: 26% | [35S]GTP-γ-S binding LogEC50 [8]: -7.78 | [35S]GTP-γ-S binding EC50 [9]: 345 nM | [35S]GTP-γ-S binding Emax [9]: 22% | [35S]GTP-γ-S binding LogEC50 [9]: -6.46 | Ki [12]: 381 nM | LogIC50 [12]: -6.09 | Ki(µ)/Ki(δ) [13]: 4.1

B4: H-Tyr-D-Ala-Gly-Phe-Gly-Pro-Leu-Trp-O-3,5-Bzl(CF3)2 (peptide)
peptide: H-Y[dA]GFGPLW-{OBzl(3,5-(CF3)2)}
modifications: also: TFA salt
notes: TFA salt; also called TY006
Substance P GPI agonist (A50), contraction relative to KCl [2]: 0 % at 1 µM | Substance P GPI antagonist Ke [2]: 5.4 nM | GPI (µ) opioid agonist IC50 [3]: 384 nM | Ki [4]: 36.1 nM | LogIC50 [4]: -7.11 | IC50 [5]: 15.6 nM | LogIC50 [5]: -7.83 | [35S]GTP-γ-S binding EC50 [8]: 50.2 nM | [35S]GTP-γ-S binding Emax [8]: 35% | [35S]GTP-γ-S binding LogEC50 [8]: -7.3 | [35S]GTP-γ-S binding EC50 [9]: 41.7 nM | [35S]GTP-γ-S binding Emax [9]: 39% | [35S]GTP-γ-S binding LogEC50 [9]: -7.38 | Ki [12]: 27 nM | LogIC50 [12]: -7.24 | Ki(µ)/Ki(δ) [13]: 0.75

B5: Tyr[DCysGlyPheDCys]ProLeuTrpNHBn(CF3)2 (peptide)
peptide: Y[dC]GF[dC]PLW-{NH(3,5-(CF3)2-benzyl)}
modifications: disulfide 2-5
notes: cyclic; also called TY037; [D-Cys2, D-Cys5]TY027
LogIC50 [14]: -6.9 | [35S]GTPγS binding EC50 [15]: 14 nM | [35S]GTPγS binding Emax [15]: 22% | [35S]GTPγS binding LogEC50 [15]: -7.9 | [35S]GTPγS binding EC50 [16]: 53 nM | [35S]GTPγS binding Emax [16]: 12% | [35S]GTPγS binding LogEC50 [16]: -7.3 | Ki [17]: 52 nM | LogIC50 [17]: -6.9 | Ki [18]: 7.8 nM | LogIC50 [18]: -7.8 | GPI Substance P antagonist Ke [19]: 4.7 nM | GPI (µ) IC50 [20]: 280 nM

B6: Tyr[DCysGlyPheNleProCys]TrpNHBn(CF3)2 (peptide)
peptide: Y[dC]GF[Nle]PCW-{NH(3,5-(CF3)2-benzyl)}
modifications: disulfide 2-7
notes: cyclic; also called TY035; [D-Cys2, Cys7]TY027
LogIC50 [14]: -7 | [35S]GTPγS binding EC50 [15]: 0.02 nM | [35S]GTPγS binding Emax [15]: 11% | [35S]GTPγS binding LogEC50 [15]: -10.8 | Ki [17]: 79 nM | LogIC50 [17]: -6.8 | Ki [18]: 1.3 nM | LogIC50 [18]: -8.6 | Ki [21]: 0.1 nM | LogIC50 [21]: -9.7 | GPI Substance P antagonist Ke [19]: 2.2 nM | GPI (µ) IC50 [20]: 1000 nM

B7: DmtDAlaGlyPheNleProLeuTrpNMeBn(CF3)2 (peptide)
peptide: YAGFXPLW
modifications: Dmt at 1 (written Y); D-Ala at 2; Nle at 5 (written X); C-terminal NMe-3,5-Bzl(CF3)2 amide
notes: also called TY052
Ki [22]: 0.46 nM | Ki [23]: 0.21 nM

B8: Tyr-D-Ala-Gly-Phe-Trp-O-3′,5′(CF3)2-Bzl (NP36) (peptide)
peptide: Y[dA]GFW-{OBzl(3,5-(CF3)2)}
GPI µ-agonist IC50 [24]: 523 nM

B9: DmtDAlaGlyPheNleProLeuTrpNHBn-2,4-(OMe)2 (peptide)
peptide: YAGFXPLW
modifications: not fully specified; Dmt at 1 (written Y); D-Ala at 2; Nle at 5 (written X); C-terminal dimethoxybenzyl amide (NHBn-2,4-(OMe)2 in Table 39, NH-3,5-Bn(OMe)2 in Table 31)
notes: also called TY054
Ki [22]: 0.15 nM | Ki [23]: 0.95 nM
